The record followed here is the Human Domainome abundance scans (Beltran et al. 2025).

To fix the notation:
B1: Zinc finger MYM-type protein 3, residues 589 to 668; numbered along this chain, Q14202 (parent)
chain: LSCHYCHSLFSGKPEVLDWQDQVFQFCCRDCCEDFKRLRGVVSQCEHCRQEKLLHEKLRFSGVEKSFCSEGCVLLYKQDF

± gives the uncertainty stated by the source.

The variants in this series derive from B1. Description: abundance fitness (aPCA) (normalised: wild type 0, dead -1); higher = more abundant; growth selection in yeast, the domain comes from the species named. Particulars: Homo sapiens.
Q22L: the abundance fitness is 0.063 ± 0.049. Turning to D18K, the abundance fitness was -0.028 ± 0.069. D18L: the abundance fitness came to 0.036 ± 0.042. Take D18C: the abundance fitness is -0.107 ± 0.088. D18A: the abundance fitness was -0.007 ± 0.047. Consider Y5Q, for which the abundance fitness stood at 0.203 ± 0.048.

Consider Y5D, for which the abundance fitness was -0.615 ± 0.07.

Turning to Y5A, the abundance fitness amounted to 0.267 ± 0.039.

Turning to D79Q, the abundance fitness stood at 0.475 ± 0.17. For D79R, the abundance fitness was determined as 0.351 ± 0.11. With P14E, the abundance fitness was -0.309 ± 0.061. As for P14V, the abundance fitness is -0.246 ± 0.054. With P14G the figure was -0.206 ± 0.042; with P14H, -0.212 ± 0.087; with Q50G, -0.436 ± 0.094.

In the case of Q50L, the abundance fitness was -0.542 ± 0.16. On to Q50R, for which the abundance fitness came out at 0.01 ± 0.11. Turning to Q50W, the abundance fitness was -0.582 ± 0.19. Q50T: the abundance fitness is -0.293 ± 0.3. As for L38R, the abundance fitness amounted to 0.087 ± 0.053. Turning to L38E, the abundance fitness was 0.302 ± 0.14.

Consider L38C, for which the abundance fitness amounted to 0.11 ± 0.16.

For the variant L38S, the abundance fitness worked out at 0.05 ± 0.057. With L38T the figure was 0.264 ± 0.075; with L38V, 0.013 ± 0.059; with L74R, 0.484 ± 0.08. As to L74H, the abundance fitness was 0.041 ± 0.3.

Regarding L74N, the abundance fitness amounted to 0.453 ± 0.22. As for L74P, the abundance fitness is -0.205 ± 0.43. On to L74V, for which the abundance fitness is -0.195 ± 0.099. V41E: the abundance fitness amounted to 0.079 ± 0.13.

In the case of V41A, the abundance fitness is -0.208 ± 0.41.

As to V41R, the abundance fitness stood at 0.003 ± 0.14. For the variant V41N, the abundance fitness was 0.317 ± 0.31. For the variant R29K, the abundance fitness amounted to 0.002 ± 0.046. With R29H the figure was 0.275 ± 0.058; with R29G, 0.008 ± 0.04; with F24C, 0.112 ± 0.057. As for F24V, the abundance fitness came to 0.133 ± 0.041. For F24P, the abundance fitness was -0.383 ± 0.068. Consider K65D, for which the abundance fitness was -0.711 ± 0.25. For the variant K65G, the abundance fitness was -0.779 ± 0.16. With K65M, the abundance fitness was determined as 0.26 ± 0.21. For K65S, the abundance fitness was -1.12 ± 0.48. K65Y: the abundance fitness was -0.113 ± 0.25. Regarding L17I, the abundance fitness was -0.009 ± 0.091. Turning to L17W, the abundance fitness was -0.135 ± 0.062. On to L17V, for which the abundance fitness is -0.027 ± 0.044. As to D21T, the abundance fitness came out at 0.004 ± 0.051. Turning to D21G, the abundance fitness is -0.114 ± 0.044. Turning to D21C, the abundance fitness was -0.204 ± 0.07. As to D21E, the abundance fitness is -0.114 ± 0.056. For the variant D21R, the abundance fitness is -0.075 ± 0.044. With D21K, the abundance fitness came out at 0.086 ± 0.051. To D21Y belongs -0.386 ± 0.089; to C6G, -1.05 ± 0.07; to C6H, -0.821 ± 0.13. For C6P, the abundance fitness was -0.949 ± 0.13. To H7V belongs -0.145 ± 0.05; to H7I, 0.088 ± 0.095. Regarding H7K, the abundance fitness came out at 0.055 ± 0.062. On to H7N, for which the abundance fitness stood at 0.126 ± 0.064. Regarding H7R, the abundance fitness is 0.049 ± 0.046.

With H7Q, the abundance fitness is -0.12 ± 0.088. H7T: the abundance fitness is 0.124 ± 0.059. For E46M, the abundance fitness was -0.631 ± 0.27. For E46K, the abundance fitness was 0.233 ± 0.26. Regarding F26N, the abundance fitness was -0.391 ± 0.1. In the case of F26K, the abundance fitness is -0.524 ± 0.075. As for F26C, the abundance fitness was -0.444 ± 0.078. As for F26Q, the abundance fitness was -0.482 ± 0.069. With F26A, the abundance fitness was -0.49 ± 0.053. To F10N belongs -0.373 ± 0.084. Regarding F10A, the abundance fitness is -0.316 ± 0.048.

Consider F10H, for which the abundance fitness is -0.043 ± 0.082. In the case of F10G, the abundance fitness is -0.408 ± 0.046. F80S: the abundance fitness was 0.194 ± 0.14. To F80T belongs 0.652 ± 0.24; to F80M, 0.294 ± 0.26; to F80C, 0.093 ± 0.2.

For the variant F80L, the abundance fitness was determined as 0.5 ± 0.12. Consider S8W, for which the abundance fitness was -0.015 ± 0.046. For the variant S8Y, the abundance fitness worked out at 0.192 ± 0.076.

S8A: the abundance fitness was found to be 0.321 ± 0.039. To S8D belongs 0.076 ± 0.057; to C28W, -0.973 ± 0.094; to C28M, 0.129 ± 0.046.

On to C28K, for which the abundance fitness came out at 0.105 ± 0.063. For C28N, the abundance fitness is -0.16 ± 0.12. As to C28Q, the abundance fitness turned out to be 0.087 ± 0.046.

For C28S, the abundance fitness was -0.021 ± 0.044. Consider E15S, for which the abundance fitness was -0.108 ± 0.064. On to E15I, for which the abundance fitness was 0.093 ± 0.054. As to E15D, the abundance fitness is -0.155 ± 0.097. To E15A belongs -0.075 ± 0.051; to E15V, 0.057 ± 0.046; to E15N, -0.015 ± 0.1. As to E15C, the abundance fitness is 0.008 ± 0.052.

For the variant S61L, the abundance fitness is -0.311 ± 0.2.

As to S61G, the abundance fitness stood at 0.282 ± 0.077. As for S61M, the abundance fitness worked out at 0.02 ± 0.17. On to S61V, for which the abundance fitness was -0.389 ± 0.18.

As to S61E, the abundance fitness is 0.293 ± 0.081. To S69E belongs -0.341 ± 0.15; to S69W, -0.623 ± 0.26; to H4M, 0.227 ± 0.044. Regarding H4S, the abundance fitness was determined as 0.248 ± 0.043.

As to H4N, the abundance fitness was determined as 0.225 ± 0.054.

In the case of H4G, the abundance fitness is 0.29 ± 0.038.

With H4A, the abundance fitness was 0.28 ± 0.039.

Turning to E33K, the abundance fitness was -0.353 ± 0.066. With E33V the figure was -0.081 ± 0.042; with E33C, -0.151 ± 0.054; with E33N, -0.018 ± 0.088. With E33R the figure was -0.193 ± 0.04. For E33G, the abundance fitness was -0.157 ± 0.04. Regarding E33L, the abundance fitness was -0.171 ± 0.042. With E33W the figure was -0.254 ± 0.047; with K52M, -0.118 ± 0.28; with K52R, -0.315 ± 0.1. Take K52C: the abundance fitness was determined as 0.546 ± 0.21. Take H47R: the abundance fitness was -0.098 ± 0.089.

In the case of H47L, the abundance fitness is -0.388 ± 0.14. Take H47W: the abundance fitness stood at 0.246 ± 0.13.

Regarding H47K, the abundance fitness is 0.075 ± 0.29. As for C32P, the abundance fitness is -0.574 ± 0.097. As for C32Q, the abundance fitness was -0.08 ± 0.055. With C32K the figure was 0.157 ± 0.044; with C32M, 0.214 ± 0.047; with C32W, -0.403 ± 0.051. As for C32S, the abundance fitness is -0.227 ± 0.047. Turning to K57R, the abundance fitness was determined as 0.092 ± 0.086. Consider K57T, for which the abundance fitness worked out at 0.05 ± 0.2. K57L: the abundance fitness was -0.016 ± 0.15. In the case of R37L, the abundance fitness stood at 0.095 ± 0.06. For the variant R37K, the abundance fitness is -0.343 ± 0.21. To C48S belongs -0.561 ± 0.43; to C48W, -0.329 ± 0.16.

C48A: the abundance fitness is -0.845 ± 0.16.

Regarding C48K, the abundance fitness was 0.19 ± 0.34. With Q44V the figure was 0.767 ± 0.072. With Q44S the figure was 0.39 ± 0.12; with Q44G, 0.185 ± 0.075. With L75K, the abundance fitness is 0.318 ± 0.23. With L75T the figure was -0.078 ± 0.12; with L75E, 0.268 ± 0.11.

In the case of L75Q, the abundance fitness was 0.573 ± 0.18. For L75H, the abundance fitness was -0.295 ± 0.3. Consider L75G, for which the abundance fitness turned out to be 0.276 ± 0.073. As to L75M, the abundance fitness is 0.176 ± 0.41. To C45A belongs -0.666 ± 0.2. With C45G the figure was -0.603 ± 0.095; with C45Y, -1.18 ± 0.4; with C31I, -1.02 ± 0.26. Consider C31P, for which the abundance fitness is -1.02 ± 0.18. On to C31A, for which the abundance fitness is -0.655 ± 0.072. Regarding C31M, the abundance fitness was -0.778 ± 0.14.

For the variant C72V, the abundance fitness is -0.647 ± 0.15. With C72K the figure was -0.33 ± 0.24; with C72M, -0.514 ± 0.28. With C72L, the abundance fitness was -1.04 ± 0.23. For C72E, the abundance fitness was -0.644 ± 0.28. Take D30E: the abundance fitness is 0.014 ± 0.046. For the variant D30W, the abundance fitness was -0.227 ± 0.05. In the case of D30S, the abundance fitness worked out at 0.055 ± 0.043.

As to G71D, the abundance fitness was determined as 0.351 ± 0.28. With G71A the figure was 0.156 ± 0.087.
